Measured values reported in publication PMC3794440 (Biochemistry, 2013).
Where two headings read alike, the source gives them in different places.

Columns and labels:
I28A Pin1 = I28A Pin1 (Homo sapiens, UniProt Q13526, I28A); assay: NMR titration; type: binding; conditions: read-out: equilibrium dissociation constant Kd (I28A), 295 K, 16.4 T, 30 mM imidazole-d4 pH 6.6, 5 mM DTT-d10, 30 mM NaCl, 0.03% NaN3, 90% H2O/10% D2O, uncertainties by jack-knife simulations
wild-type Pin1 [1] = molecular target: T1, wild-type Pin1 (Homo sapiens, UniProt Q13526); assay: NMR titration; type: binding; conditions: read-out: equilibrium dissociation constant Kd (WT), 295 K, 16.4 T, 30 mM imidazole-d4 pH 6.6, 5 mM DTT-d10, 30 mM NaCl, 0.03% NaN3, 90% H2O/10% D2O, uncertainties by jack-knife simulations
wild-type Pin1 [2] = molecular target: T1, wild-type Pin1; assay: chromogenic coupled isomerase assay of Kofron et al., WT; type: biochemical; conditions: chromogenic substrate suc-AEPF-pNA

Row | Kd (I28A Pin1; residue G20, WW domain) [µM] | Kd (I28A Pin1; residue R14, WW domain) [µM] | Kd (I28A Pin1; residue R54, PPIase domain) [µM] | Kd (wild-type Pin1 [1]; residue A140, PPIase domain) [µM] | Kd (wild-type Pin1 [1]; residue G20, WW domain) [µM] | Kd (wild-type Pin1 [1]; residue R14, WW domain) [µM] | Kd (wild-type Pin1 [1]; residue R54, PPIase domain) [µM] | specificity constant kcat/KM (WT) (wild-type Pin1 [2]) [mM^–1 s^–1] | Substance
1 | 43.5 ± 3 | 48.5 ± 4.9 | 110 ± 10 | 9.7 ± 2 | 9.1 ± 0.4 | 2.7 ± 0.7 | 7.8 ± 0.4 | – | EQPLpTPVTDL [Cdc25C phosphopeptide]
2 | – | – | – | – | – | – | – | 4250 ± 213 | WT: full-length wild-type human Pin1 (WW domain and PPIase domain)
